B1: v36180 (M3-H1L1) (antibody, human IgG1, kappa, V domains shown)
VH: EVQLVQSGAEVKKPGSSVKVSCKASGYTFTDYEMHWVRQAPGQGLEWIGAIDPETGDTAYNQKFKGRATLTADKSTSTAYMELSSLRSEDTAVYYCTRYFSFAYWGQGTLVTVSS
VL: DVQMTQSPSSVSASVGDRVTITCRSSQSLRHSNGNTYLQWYQQKPGKAPKLLIYKVSNRFSGVPSRFSGSGSGTDFTLTISSLQPEDFATYFCYQSKHVPYTFGQGTKVEIKR
B2: v37575 (codrituzumab) (antibody, human IgG1, kappa, V domains shown)
VH: QVQLVQSGAEVKKPGASVKVSCKASGYTFTDYEMHWVRQAPGQGLEWMGALDPKTGDTAYSQKFKGRVTLTADKSTSTAYMELSSLTSEDTAVYYCTRFYSYTYWGQGTLVTVSS
VL: DVVMTQSPLSLPVTPGEPASISCRSSQSLVHSNRNTYLHWYLQKPGQSPQLLIYKVSNRFSGVPDRFSGSGSGTDFTLKISRVEAEDVGVYYCSQNTHVPPTFGQGTKLEIKR

Target: Insulin (Sigma-Aldrich, 19278) (Homo sapiens (Human)) (UniProt P01308)
Test: NS-ELISA, plate coated with insulin, antibody at 100 nM

Sequence of Insulin (Sigma-Aldrich, 19278) (Homo sapiens (Human)) (P01308 25-54 limits assumed, chain 1 of 2): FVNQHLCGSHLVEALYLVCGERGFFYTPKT
Sequence of Insulin (Sigma-Aldrich, 19278) (Homo sapiens (Human)) (P01308 90-110 limits assumed, chain 2 of 2): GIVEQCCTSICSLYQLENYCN

Binder	NS-ELISA binding score (ratio to buffer well)
B1	1.78
B2	0.83

From patent US20250295799A1, “ANTIBODY-DRUG CONJUGATES TARGETING GLYPICAN-3 AND METHODS OF USE” (Zymeworks BC Inc., priority 2022, published 2025)
